How the values were obtained:
Conditions in all cases: label: Alexa680 at 5' and 3'
hPUF_MT(R3→R5, R4→R6) = target: T1, hPUF_MT(R3→R5, R4→R6); experiment: EMSA; binds U (R2 position) >> C
T1 chain: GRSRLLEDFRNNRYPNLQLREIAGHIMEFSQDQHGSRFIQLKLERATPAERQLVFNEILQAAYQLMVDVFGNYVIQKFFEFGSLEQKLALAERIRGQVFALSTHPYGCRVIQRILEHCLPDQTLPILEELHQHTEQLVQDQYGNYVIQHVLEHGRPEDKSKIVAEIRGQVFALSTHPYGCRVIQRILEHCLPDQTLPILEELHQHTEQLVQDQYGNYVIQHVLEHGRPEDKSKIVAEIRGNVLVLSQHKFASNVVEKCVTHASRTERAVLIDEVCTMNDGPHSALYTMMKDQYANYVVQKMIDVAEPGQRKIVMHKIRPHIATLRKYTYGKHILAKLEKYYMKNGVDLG
Procedure: (§1) Each purified protein was diluted to a desired concentration with Binding Buffer, mixed with a binding buffer and Ribonuclease Inhibitor, Cloned (Invitrogen), and then, mixed with the RNA probe at a final concentration of 0.5 nM. […] A binding reaction was performed at 4° C. for 30 min. Subsequently, the solution was gently mixed by pipetting. A binding reaction was performed again at 4° C. for […].
(§2) The solution obtained after the binding reaction was applied to 6% a non-denaturing polyacrylamide gel, followed by electrophoresis at 4° C. and 200 V. When the electrophoresis marker (2 μL of 6×Dye+10 μL of 1×binding buffer) moved by 0.5 cm, the voltage was changed to 100 V, and electrophoresis was continuously performed until the electrophoresis marker moved by 3 cm. Finally, RNA was detected with Odyssey.

[1] = target: human PUM1 PUF domain wild type (hPUF WT) (UniProt Q14671 SEQ:1-349); experiment: EMSA; reference; 4 C, 100 mM NaCl, 1 mM EDTA, pH 7.5
Procedure: as §1, §2

[2] = target: T2, hPUF_MT(R7_S12N,E16Q, R3→R5, R4→R6) (R7 repeat S12N,E16Q); experiment: EMSA; binds U exclusively
T2 chain: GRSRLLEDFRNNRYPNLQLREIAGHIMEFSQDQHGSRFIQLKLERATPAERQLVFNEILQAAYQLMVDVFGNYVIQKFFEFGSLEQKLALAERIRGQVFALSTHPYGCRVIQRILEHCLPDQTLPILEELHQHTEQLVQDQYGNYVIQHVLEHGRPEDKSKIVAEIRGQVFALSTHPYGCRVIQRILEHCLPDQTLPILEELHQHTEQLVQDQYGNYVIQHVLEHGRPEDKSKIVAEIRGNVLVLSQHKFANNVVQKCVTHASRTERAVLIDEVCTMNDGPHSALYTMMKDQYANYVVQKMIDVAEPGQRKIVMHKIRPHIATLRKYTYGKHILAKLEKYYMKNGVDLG

hPUF_MT(R4→R6) = target: T3, hPUF_MT(R4→R6) (UniProt Q14671 SEQ:1-349); experiment: EMSA; comparable to WT
T3 chain: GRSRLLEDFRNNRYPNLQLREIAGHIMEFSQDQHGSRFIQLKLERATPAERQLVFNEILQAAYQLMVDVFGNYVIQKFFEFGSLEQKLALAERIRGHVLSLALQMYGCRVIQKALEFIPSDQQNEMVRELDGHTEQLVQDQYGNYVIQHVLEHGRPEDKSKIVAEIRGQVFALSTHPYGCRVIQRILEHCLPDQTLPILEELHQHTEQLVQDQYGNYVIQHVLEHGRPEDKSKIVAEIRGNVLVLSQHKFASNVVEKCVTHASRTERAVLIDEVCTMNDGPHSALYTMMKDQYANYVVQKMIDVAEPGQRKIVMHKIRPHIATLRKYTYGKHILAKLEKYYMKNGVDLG
Procedure: (§3) An RNA probe (OTS-1511) containing a target sequence fluorescence-labeled with Alexa680 at both ends thereof was synthesized.
as §1

hPUF_MT(R3→R5) = target: T4, hPUF_MT(R3→R5) (UniProt Q14671 SEQ:1-349); experiment: EMSA; comparable to WT
T4 chain: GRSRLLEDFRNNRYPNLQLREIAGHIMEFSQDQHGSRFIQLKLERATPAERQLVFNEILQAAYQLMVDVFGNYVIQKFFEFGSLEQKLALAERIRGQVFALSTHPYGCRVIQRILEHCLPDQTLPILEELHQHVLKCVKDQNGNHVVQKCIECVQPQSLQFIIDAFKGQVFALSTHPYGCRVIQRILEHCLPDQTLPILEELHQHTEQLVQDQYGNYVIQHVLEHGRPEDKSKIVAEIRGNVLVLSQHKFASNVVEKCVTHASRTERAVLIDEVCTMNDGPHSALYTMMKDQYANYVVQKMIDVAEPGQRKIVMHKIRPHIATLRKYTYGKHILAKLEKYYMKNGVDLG
Procedure: as §3, §1

[3] = target: T5, hPUF_MT(R2_N12S,Q16E, R3→R5, R4→R6) (R2 repeat N12S,Q16E); experiment: EMSA; binds G exclusively
T5 chain: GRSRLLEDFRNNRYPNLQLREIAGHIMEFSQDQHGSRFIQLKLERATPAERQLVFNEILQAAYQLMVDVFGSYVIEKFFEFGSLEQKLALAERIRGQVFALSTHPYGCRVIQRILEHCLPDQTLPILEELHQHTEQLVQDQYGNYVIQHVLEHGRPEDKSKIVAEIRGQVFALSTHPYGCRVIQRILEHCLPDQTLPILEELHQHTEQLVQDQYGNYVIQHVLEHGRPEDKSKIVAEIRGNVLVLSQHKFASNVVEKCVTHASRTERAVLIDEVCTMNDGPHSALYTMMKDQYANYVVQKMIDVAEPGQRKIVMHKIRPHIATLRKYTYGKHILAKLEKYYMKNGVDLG

[4] = target: T6, hPUF_MT(R8_N12S,Q16E, R3→R5, R4→R6) (R8 repeat N12S,Q16E); experiment: EMSA; binds G exclusively
T6 chain: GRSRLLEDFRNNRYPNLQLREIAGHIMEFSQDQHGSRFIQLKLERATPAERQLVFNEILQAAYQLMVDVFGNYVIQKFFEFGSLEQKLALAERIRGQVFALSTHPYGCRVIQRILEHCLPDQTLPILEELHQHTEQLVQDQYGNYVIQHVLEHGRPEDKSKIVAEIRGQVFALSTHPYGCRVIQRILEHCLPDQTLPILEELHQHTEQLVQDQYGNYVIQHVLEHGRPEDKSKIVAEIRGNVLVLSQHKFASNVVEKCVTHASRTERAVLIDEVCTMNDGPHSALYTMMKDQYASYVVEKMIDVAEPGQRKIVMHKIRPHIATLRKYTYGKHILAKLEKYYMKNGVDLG

CCAGAAUUGUAUAUAUUCG (ssRNA) [OTS-1511]
binding result (hPUF_MT(R3→R5, R4→R6)): binds | binding result [1]: binds | binding result [2]: no binding | binding result (hPUF_MT(R4→R6)): binds | binding result (hPUF_MT(R3→R5)): binds | binding result [3]: no binding | binding result [4]: no binding

From patent US11472855, “RNA-binding protein” (Panitch Schwarze Belisario & Nadel LLP)
